Reference: patent publication US20140322216A1

Target: human glypican-3 naturally expressed on the cell surface (HepG2 and other GPC3+ cell lines) (human) (UniProt P51654)
Assay: flow cytometry on HepG2, 1G12 with anti-mouse dye, grey = isotype control; on Hs578T the histogram lies on the control's

human glypican-3 naturally expressed on the cell surface (HepG2 and other GPC3+ cell lines) (human), sequence (P51654 25-554 limits assumed): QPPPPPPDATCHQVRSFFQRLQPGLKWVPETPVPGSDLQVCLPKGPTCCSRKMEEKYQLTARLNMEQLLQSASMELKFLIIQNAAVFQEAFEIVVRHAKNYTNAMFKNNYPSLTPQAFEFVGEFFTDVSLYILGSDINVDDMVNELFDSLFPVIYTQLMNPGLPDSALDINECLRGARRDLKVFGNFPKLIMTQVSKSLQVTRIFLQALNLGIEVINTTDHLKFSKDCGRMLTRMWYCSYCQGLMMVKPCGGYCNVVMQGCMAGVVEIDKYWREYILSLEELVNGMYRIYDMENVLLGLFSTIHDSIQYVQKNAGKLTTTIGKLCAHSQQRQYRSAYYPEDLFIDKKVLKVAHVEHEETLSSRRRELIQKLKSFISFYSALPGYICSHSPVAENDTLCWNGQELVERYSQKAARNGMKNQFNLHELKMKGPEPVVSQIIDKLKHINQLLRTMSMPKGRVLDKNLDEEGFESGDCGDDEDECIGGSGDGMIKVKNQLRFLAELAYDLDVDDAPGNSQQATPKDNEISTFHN

% of cells in the positive gate: 46.1%
Substance: commercial monoclonal anti-human GPC3 antibody (clone 1G12)
